The source of these data is patent publication US20110286916A1 (published 2011).

The target in assay [1] is T1, human full-length Notch3 with C-terminal FLAG tag, stably expressed on 293 FlpIn (TREx) cells (human, UniProt Q9UM47 40-2321).
T1 construct: whole, on cells; made by the same strategy as the Notch1 line; also called 293-N3; hN3
The assay is described as follows: FACS, phage scFv.

Assay [2] deals with T2, human full-length Notch1 with C-terminal FLAG tag, stably expressed on 293 FlpIn (TREx) cells (human, UniProt P46531 19-2555).
T2 construct: tetracycline/doxycycline-induced expression from pcDNA5/FRT/TO-HN1+FLAG; also called hN1; 293_N1
The assay is described as follows: FACS, phage scFv. (In general: Flow cytometry measures light scatter and fluorescence of single cells or particles in a stream.)

B1: N1wc182 (scFv, V domains shown)
VH: QVQLVQSGPEVKKPGTSVKVSCKASGFTFTSSAVQWVRQARGQRLEWIGWIVVGSGNTNYAQKFQERVTITRDMSTSTAYMELSSLRSEDTAVYYCVADTVYWGQGTLVTVSS
VL: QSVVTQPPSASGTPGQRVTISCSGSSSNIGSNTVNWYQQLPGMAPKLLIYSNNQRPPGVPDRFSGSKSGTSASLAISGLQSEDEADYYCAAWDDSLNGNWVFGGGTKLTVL
notes: phage scFv
With B1, the binding result in assay [1] and in assay [2] was “binds” in each case.

B2: N1wc570 (scFv, V domains shown)
VH: QVQLVQSGPEVKKPGTSVKVSCKASGFTFTSSAVQWVRQARGQRLEWIGWIVVGSGNTNYAQKFQERVTITRDMSTSTAYMELSSLRSEDTAVYYCVADTVYWGRGTMVTVSS
VL: QSVLTQPPSASATPGQTVTISCSGSTSNIGNNNVNWYQQVPGTAPKLLMYSNNQRPSGVPDRFSGSRSGTSASLAITALQSEDEADYYCATWDDSLSAWVFGGGTKVTVL
notes: phage scFv
B2: the binding result in assay [1] and in assay [2] was “binds” in each case.

B3: N1wc170 (scFv, V domains shown)
VH: QVQLQQSGPEVKKPGASVKISCKTSGYTFSSFGISWVRQAPGQGPEWMGWVSPYSGDTDYAQKFRGRVTMTIDSSTDTAYVEMRSLRSDDTAIYYCANSPISDGSSSSYDNWGKGTLVTVSS
VL: SYELTQPPSVSVAPGQTARITCGGENIGTKSVHWYQQKSGQAPVLVIYEDKKRPSGIPDRFSGSSSGTMATLTITGAQVDDEADYYCYSADNTGDQRMFGGGTKLTVL
notes: phage scFv
As to B3, the binding result in assay [1] and in assay [2] was “binds” in each case.

B4: N1wc301 (scFv, V domains shown)
VH: QVQLQQSGAEVKKPGASVKVSCKASGYIFGTYAIHWVRQAPGQSLEWMGWINAGTGNTKYSQKFQGRVTITMDTSATTAYMELSSLRSGDTAVYYCTRGDYYDSRGYYNRFDYWGRGTLVTVSS
VL: QSVVTQPPSASGTPGQRVTISCSGSSSNIGKNNVYWYQQLPGAAPKLLIYRNHERASGVPDRFSGSKSGTSASLAISGLQSEDEADYYCAARDDSLNGYVFGTGTKVTVL
notes: phage scFv
B4: the binding result in assay [1] and in assay [2] was “binds” each time.

B5: N1wc441 (scFv, V domains shown)
VH: QVQLVQSGAEVKKPGASVKVSCKAPGYSFTDYYLHWVRQAPGIGLEWVGWINPNNGGTNYAQKFRGRVTMTRDTAINTAYMDMRWLRSDDTAVYYCATDGPPGTGNAFDIWGRGTLVTVSS
VL: SYELTQPPSVSVSPGQTARITCSGDALPDKYVHWYQQKSGQAPVLVLFDDSKRPSGIPERFSGSSSGTVATLIISGAQVEDEGDFFCYSTDSSGNERVFGGGTKLTVL
notes: phage scFv
For the molecule B5, the binding result in assay [1] and in assay [2] was “binds” throughout.

B6: N1wc129 (scFv, V domains shown)
VH: QVQLVQSGAEVKKPGASVKVSCKASGYNFTGYYLHWVRQAPGQGLEWMGWIDPNSGGTDYAQQFQGRVTVTRDTSISTAYMELSGLRSDDTAVYYCASDSFDHWGQGTLVTVSS
VL: QSVLTQPPSASGTPGQRATISCSGSGSNIGRNAVNWFQQLPGAAPKLLIYSNIHRPSGVPDRISGSKSGTSATLAISGLQSEDEADYYCATWDDSLNDYVFGTGTKLTVL
notes: phage scFv
Take B6: the binding result in assay [1] and in assay [2] was “binds” in each case.

B7: N1wc132 (scFv, V domains shown)
VH: QVQLVQSGAEVKKPGASVKVSCKASGYNFTGYYLHWVRQAPGQGLEWMGWINPNSGGTDYAQKFQGRVTVTRDTSISTAYMELGGLRSDDTAVYYCVSDSFDHWGRGTLVTVSS
VL: QSVLTQPPSASGTPGQRVTISCSGSSSNIGSNPVNWYQQLPGSAPKLLVYSDDQRPSGVPDRFSGSKSGASASLAISGLQSEDESDYYCAAWDDSQNAVVFGGGTKVTVL
notes: phage scFv
Turning to B7, the binding result in assay [1] and in assay [2] was “binds” in each case.

B8: N1wc319 (scFv, V domains shown)
VH: QVQLVQSGAEVEKPGASVKVSCKASGYNFTGYYMHWVRQAPGQGLEWMGWINPNSGGTNYAQKFQGRVTMTRDTSISTAYMELSRLRSDDTAVYYCATDSFDYWGRGTLVTVSS
VL: QSVLTQPPSSSGTPGQRVTISCSGSSSNIGSNSVNWYQQLPGAAPKLLIYSDNQRPSGVPDRFSASKSYTSASLAISGLQSGDEADYFCATWDDSLTGLVFGGGTKLTVL
notes: phage scFv
Regarding B8, the binding result in assay [1] and in assay [2] was “binds” each time.

B9: N1wc535 (scFv, V domains shown)
VH: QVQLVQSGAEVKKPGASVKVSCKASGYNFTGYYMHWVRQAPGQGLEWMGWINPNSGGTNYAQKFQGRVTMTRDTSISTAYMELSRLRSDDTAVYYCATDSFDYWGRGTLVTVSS
VL: QSVLTQPPSASGTPGQRVTLSCSGSSSNIGSNTVNWYQQLPGTAPKVLIYSDNQRPSGVPDRFSGSKSGTSASLAISGLQSDDEAVYYCAGWDDSLNAYLFGTGTKVTVL
notes: phage scFv
On to B9, for which the binding result in assay [1] and in assay [2] was “binds” in each case.

B10: N1wc586 (scFv, V domains shown)
VH: QVQLVQSGPEVKKPGASVKVSCKAAGYTFPDFYMHWVRQAPGKGPEWVGWINSNSGSTRLAERLEGRVTLTRDTSISTAYMELTSLTSDDTAVYYCARGAYDYVWGTSRYVADAFDIWGQGTLVTVSP
VL: DIVMTQSPSTLSASVGDRVTITCRASQGISSWLAWYQQKPGRAPKVLIYKASTLESGVPSRFSGSGSGTDFTLTISSLQPEDFATYYCQQSYSTPWTFGQGTKLEIK
notes: phage scFv
As to B10, the binding result in assay [1] and in assay [2] was “binds” each time.

B11: N1wc177 (scFv, V domains shown)
VH: QVQLVQSGAEVKEPGSSVRVSCKSSGGTFSNYAISWVRQAPGQGLEWMGGIIPGFGKTNYAQKFQGRVTITADASTSTTYMELRTLRSGDTAVYYCARDRGPDIGVAHFDSWGKGTMVTVSS
VL: QAVLTQPSSASGTPGQRVIISCSGSSSNIGKYIVNWYQQLPGAAPKLLIYTYNERPSGVPARFSGSTSGTSASLAITGLQSEDEADYYCASWDDSLNVVVFGGGTKLTVL
notes: phage scFv
Consider B11, for which the binding result in assay [1] and in assay [2] was “binds” in each case.

B12: N1wc289 (scFv, V domains shown)
VH: QVQLVQSGAEVKKPGTTVKISCKVSGYKFTDYYIHWVRQAPGKGLEWMGFVDPTDDETRFAEKFQGRLTMTADTSRDTASMELSSLRSEDTAVYYCIRGIAALADWGRGTMVTVSS
VL: QAVLTQPSSLSASPGASASLTCTLRSDINLETSRIYWFQQKPGSPPRYLLRYQSDSDNNLDSGVPSRFSGSKDASANAGILLISGVQSEDEADYHCMIWHSGGSVFGGGTKVTVL
notes: phage scFv
As to B12, the binding result in assay [1] and in assay [2] was “binds” throughout.

B13: N1wc164 (scFv, V domains shown)
VH: QVQLVQSGADVKKPGASVKISCKASGYTFTKYYMHWVRQAPGQGLEWMGIINPTNGYTSYAQKFQGRVTMTSDTSASTVSMELSSLRSEDTAVYYCTRSYSNYDSFDIWGRGTMVTVSS
VL: QAVLTQPSSVSGAPGQRITISCTGTSSNIGAGYDVEWYQHLPGTAPKLLIYRNSNRPSGVPDRFSASKSGTSASLVITGLQAEDEADYYCQSYDTRLSDSVIFGGGTKLTVL
notes: phage scFv
Take B13: the binding result in assay [1] and in assay [2] was “binds” in each case.

B14: N1wc127 (scFv, V domains shown)
VH: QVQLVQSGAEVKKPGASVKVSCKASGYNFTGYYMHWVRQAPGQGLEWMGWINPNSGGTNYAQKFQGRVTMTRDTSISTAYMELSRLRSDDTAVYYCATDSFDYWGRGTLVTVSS
VL: SYVLTQPPSTSGAPGQRVTISCSGSSSNIGSNGVNWYHHLPGTAPKLLIYSNFHRPSGVPDRFSGSKSGTSATLAISGLQSEDEADYYCAAWDDSLNDYVFGVGTKVTVL
notes: phage scFv
As to B14, the binding result in assay [1] and in assay [2] was “binds” in each case.

B15: N1wc281 (scFv, V domains shown)
VH: QVQLQESGAEVKKPGASVKVSCRASGYTFTTNSLHWVRQAPGQGLDWMGVINPRDGSATVAQKFQGRITMTSDTSTSTVFLALSSLTSDDTGVYFCARDGLDYRDTSRILAPTDVWGRGTLVTVSS
VL: QSVLTQPPSVSVSPGQTASITCSGDKLGDKYTFWYQQKPGQSPVLIIYQDTKRPSGIPERFSGSNSGNTATLTISGTQAMDEADYYCQAWDSNTDHVIFGGGTKLTVL
notes: phage scFv
On to B15, for which the binding result in assay [1] and in assay [2] was “binds” in each case.

B16: N1wc241 (scFv, V domains shown)
VH: EVQLVQSGAEVKKPGASVKVSCKTSGYTFNDYYHHWVRQAPGQGLEWMGWINPHTGVANYAEKYKGRLAMTGDTSISTIYMDLSSLISDDTAIYFCARERSEWRNTVSSPSEYFHHWGKGTLVTVSS
VL: QSVLTQPPSASGTPGQRVTISCSGSFSNIGSNNVYWYQQLAGTAPKLLIYRNNERPSGVPDRFSGSKSGTSASLAISGLRSEDEADYYCAVRDDSLSGHYVFGSGTKVTVL
notes: phage scFv
With B16, the binding result in assay [1] and in assay [2] was “binds” throughout.

B17: N1wc150 (scFv, V domains shown)
VH: EVQLVQSGAEVKKPGASVKVSCKASGYNFTGYYMHWVRQAPGQGLEWMGWINPNSGGTNYAQKFQGRVTMTRDTSISTAYMELSRLRSDDTAVYYCATDSFDYWGRGTMVTVSS
VL: SYELTQPPSASGTPGQRVTISCSGSGSNIGKNTVNWYQQLPGAAPKLLIYSNNERPSGVPGRFSGSKSGTSASLAISGLQSEDETDYYCAAWDDSLNDMVFGGGTKVTVL
notes: phage scFv
As for B17, the binding result in assay [1] and in assay [2] was “binds” in each case.

B18: N1wc239 (scFv, V domains shown)
VH: EVQLVESGAEVKKPGASVKVSCKASGYNFTGYYIHWVRQAPGQGLEWMGWINPNSGGTNYAQKFQGRVIMTRDTSISTAYMELSRLRSDDTAVYYCATDSFDYWGKGTMVTVSS
VL: QSVLTQPPSASGTPGQRVAISCSGSHSNIRSNDVYWYQQFPGTAPKLLIYSNDQRPSGVSDRFAGSKSGTSASLAISGLRSEDESDYYCATWDDSLSGVVFGGGTKLTVL
notes: phage scFv
Take B18: the binding result in assay [1] and in assay [2] was “binds” throughout.

B19: N1wc295 (scFv, V domains shown)
VH: QVQLQQSGAEVKKPGASVKVSCKASGYNFTGYYMHWVRQAPGQGLEWMGWINPNSGGTNYAQNFQGRVTMTRDTSISTAYMELSRLRSDDTAVYYCATDSFDYWGRGTMVTVSS
VL: QSVLTQPPSASGTPGQRVTISCSGNRSNIGSNTVNWYQQLPGTAPKLLIYSNDQRPSGVPDRFSGSKSGTSASLTISGLQSDDEADFYCAAWDDNLNGYVFGSGTKVTVL
notes: phage scFv
In the case of B19, the binding result in assay [1] and in assay [2] was “binds” in each case.
